From publication PMC5435912

Tests used:
[1] = molecular target: CdiI^Ykris-His6, immunity protein of Yersinia kristensenii ATCC 33638 (Yersinia kristensenii ATCC 33638); assay: BLI
[2] = molecular target: bovine pancreatic RNase A, biotinylated (bovine) (UniProt P61823); assay: BLI
UniProt P61823, sequence (P61823 27-150): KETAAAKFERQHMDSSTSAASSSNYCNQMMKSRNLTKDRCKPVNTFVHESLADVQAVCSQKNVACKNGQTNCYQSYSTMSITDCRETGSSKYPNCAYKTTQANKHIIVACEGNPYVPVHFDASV

Substance	Kd [1]	Kd [2]
CdiA-CT^Ykris, C-terminal toxin region of CdiA from Yersinia kristensenii ATCC 33638 (domain or fragment)	40.9 nM	–
CdiI^Ykris-His6, immunity protein of Yersinia kristensenii ATCC 33638 (natural protein)	–	1950 nM
